Here are results for seven molecules from patent US20180296691A1 (Pfizer, published 2018).

A value given as a limit tells only on which side of the number the result lay.

Assay [1] addresses T1, human EFNA4 expressed on cells (human, UniProt P52798 26-170).
T1 sequence: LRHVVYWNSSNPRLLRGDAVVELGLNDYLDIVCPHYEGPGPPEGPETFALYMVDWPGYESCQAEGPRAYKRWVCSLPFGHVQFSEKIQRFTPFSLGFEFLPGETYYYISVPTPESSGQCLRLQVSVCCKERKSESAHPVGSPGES
Nature of the assay: flow cytometry, MEC1 B-CLL cells (endogenous EFNA4), 10 µg/ml antibody.

The target of assay [2] is T1, human EFNA4 expressed on cells. Nature of the assay: flow cytometry, MX-1 breast cells (endogenous EFNA4), 10 µg/ml antibody.
Assay [3] has the same target. In words: flow cytometry, HCC202 breast cells (endogenous EFNA4), 10 µg/ml antibody.
Assay [4] shares this target. In words: flow cytometry, Z138 mantle cell lymphoma cells (endogenous EFNA4), 10 µg/ml antibody.
The target of assay [5] is T2, monomeric human Ephrin-A4 (human), P52798.
T2 chain: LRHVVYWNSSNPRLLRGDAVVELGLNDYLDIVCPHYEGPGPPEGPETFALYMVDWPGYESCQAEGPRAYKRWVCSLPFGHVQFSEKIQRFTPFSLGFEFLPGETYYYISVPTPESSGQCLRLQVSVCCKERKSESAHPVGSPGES
In words: SPR (BIAcore 2000), Eph receptor captured via anti-human antibody capture kit, monomeric human Ephrin-A4 12-400 nM as analyte, steady state affinity fit. The note with it: remark: other sources report otherwise.

The target of assay [6] is T3, human EFNA4 antigen (ephrin-A4 ligand) (human, UniProt P52798 26-170).
T3 construct: also called Hu Ag
T3 sequence: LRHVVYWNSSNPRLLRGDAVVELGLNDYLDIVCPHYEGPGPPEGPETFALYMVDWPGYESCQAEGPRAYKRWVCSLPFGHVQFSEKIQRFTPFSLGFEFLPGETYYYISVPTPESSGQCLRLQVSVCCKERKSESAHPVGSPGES
In words: Hu Ag Affinity (Humanized mAb); method not stated.

The target in assay [7] is T4, Ephrin-A1-His (R&D) (UniProt P20827 19-182).
T4 construct: also called Ephrin-A1 (EFNA1); EFNA1; not shown: His tag
T4 sequence (looked up): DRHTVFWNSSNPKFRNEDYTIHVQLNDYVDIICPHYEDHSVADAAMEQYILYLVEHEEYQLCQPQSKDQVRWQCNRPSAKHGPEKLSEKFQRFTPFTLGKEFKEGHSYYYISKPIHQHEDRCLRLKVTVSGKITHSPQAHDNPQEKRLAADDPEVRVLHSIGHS
In words: direct ELISA, Ephrin-A1-His coated on the plate, biotin-labeled huE47, streptavidin-HRP, OD450.

Assay [8] has as its target T5, Ephrin-A3-huFc (R&D) (UniProt P52797 23-214, limits assumed).
T5 construct: also called Ephrin-A3 (EFNA3); EFNA3; not shown: human Fc
T5 sequence (looked up): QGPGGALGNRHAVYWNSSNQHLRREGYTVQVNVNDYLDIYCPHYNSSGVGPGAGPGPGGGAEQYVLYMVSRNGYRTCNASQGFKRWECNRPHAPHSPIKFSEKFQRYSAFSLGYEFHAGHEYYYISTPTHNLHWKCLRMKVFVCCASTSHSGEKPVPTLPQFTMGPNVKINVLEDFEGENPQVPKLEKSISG
In words: direct ELISA, Ephrin-A3-huFc coated on the plate, biotin-labeled huE47, streptavidin-HRP, OD450.

The target in assay [9] is T1, human EFNA4 expressed on cells. In words: cell-based or functional assay.
Assay [10] has the same target. Nature of the assay: cell-based or functional assay. The source holds these as a separate data set.
Assay [11] concerns the target T6, recombinant human EFNA4 extracellular domain fused to a histidine tag (human, UniProt P52798 26-170).
T6 construct: also called hEFNA4-ECD-His; not shown: histidine tag
T6 sequence: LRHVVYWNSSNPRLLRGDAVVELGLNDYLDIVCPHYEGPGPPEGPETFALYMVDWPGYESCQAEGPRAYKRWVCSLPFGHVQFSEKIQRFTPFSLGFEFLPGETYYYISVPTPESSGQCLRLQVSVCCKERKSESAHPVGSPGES
In words: SPR (BIAcore 2000), recombinant EFNA4 ECD-His.

Assay [12] concerns the target T7, recombinant cynomolgus monkey EFNA4 extracellular domain fused to a histidine tag (cynomolgus monkey, UniProt A0A2K5U3S7 84-228).
T7 construct: extracellular domain; not shown: histidine tag
T7 sequence: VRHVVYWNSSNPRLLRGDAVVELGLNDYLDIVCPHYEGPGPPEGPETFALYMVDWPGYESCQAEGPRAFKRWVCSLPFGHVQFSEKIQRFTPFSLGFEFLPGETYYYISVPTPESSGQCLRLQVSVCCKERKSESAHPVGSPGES
In words: SPR (BIAcore 2000), recombinant EFNA4 ECD-His.

In assay [13] the target is T8, recombinant rat EFNA4 extracellular domain fused to a histidine tag (rat, UniProt D3ZEN1 26-173).
T8 construct: extracellular domain; also called rat antigen; not shown: histidine tag
T8 sequence: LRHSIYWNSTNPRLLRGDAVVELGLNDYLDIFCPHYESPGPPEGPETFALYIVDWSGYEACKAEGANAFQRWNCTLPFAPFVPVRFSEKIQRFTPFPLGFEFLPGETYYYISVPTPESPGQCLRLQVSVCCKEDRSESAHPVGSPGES
In words: SPR (BIAcore 2000), recombinant EFNA4 ECD-His.

For assay [14], the target named is T4, Ephrin-A1-His (R&D). In words: direct ELISA, Ephrin-A1-His coated on the plate, biotin-labeled huE22, streptavidin-HRP, OD450.
Description: Antibody binding was determined by direct ELISA with Ephrin-A1-His, Ephrin-A3-huFc, Ephrin-A4-huFc and Ephrin-A5-huFc (all from R&D) coated on BioOne Microlon (Greiner) plates in PBS overnight at 4° C.
In assay [15] the target is T5, Ephrin-A3-huFc (R&D). Nature of the assay: direct ELISA, Ephrin-A3-huFc coated on the plate, biotin-labeled huE22, streptavidin-HRP, OD450.
The target of the next assay is T9, Ephrin-A4-huFc (R&D) (human, UniProt P52798 26-170).
T9 construct: bought reagent; also called Ephrin-A4 (EFNA4); EFNA4; not shown: human Fc
T9 sequence: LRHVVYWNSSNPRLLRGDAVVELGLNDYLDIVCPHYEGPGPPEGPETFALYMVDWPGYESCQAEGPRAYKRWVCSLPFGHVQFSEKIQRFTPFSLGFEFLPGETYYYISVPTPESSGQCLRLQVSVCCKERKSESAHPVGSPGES
Nature of the assay: direct ELISA, Ephrin-A4-huFc coated on the plate, biotin-labeled huE22, streptavidin-HRP, OD450.

For the next assay, the target named is T10, Ephrin-A5-huFc (R&D) (UniProt P52803 21-203).
T10 construct: also called EFNA5; not shown: human Fc
T10 sequence (looked up): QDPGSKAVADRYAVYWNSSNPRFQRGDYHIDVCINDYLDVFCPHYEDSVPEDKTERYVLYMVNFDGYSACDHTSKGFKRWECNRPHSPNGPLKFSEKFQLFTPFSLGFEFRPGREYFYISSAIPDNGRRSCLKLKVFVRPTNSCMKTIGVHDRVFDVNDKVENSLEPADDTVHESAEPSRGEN
In words: direct ELISA, Ephrin-A5-huFc coated on the plate, biotin-labeled huE22, streptavidin-HRP, OD450.

For assay [16], the target named is T1, human EFNA4 expressed on cells. In words: cell-based or functional assay. The source holds these as a separate data set.

For Non-binding control IgG (antibody), the Mean Channel Fluorescent (MCF) in [1] was 7.2; in assay [2], 3.6; in [3], 15.6; in [4], 7.4.

B1: recombinant EphA1 receptor (commercially available), P21709 26-547 (receptor, UniProt P21709 26-547, looked up)
chain: KEVTLMDTSKAQGELGWLLDPPKDGWSEQQQILNGTPLYMYQDCPMQGRRDTDHWLRSNWIYRGEEASRVHVELQFTVRDCKSFPGGAGPLGCKETFNLLYMESDQDVGIQLRRPLFQKVTTVAADQSFTIRDLVSGSVKLNVERCSLGRLTRRGLYLAFHNPGACVALVSVRVFYQRCPETLNGLAQFPDTLPGPAGLVEVAGTCLPHARASPRPSGAPRMHCSPDGEWLVPVGRCHCEPGYEEGGSGEACVACPSGSYRMDMDTPHCLTCPQQSTAESEGATICTCESGHYRAPGEGPQVACTGPPSAPRNLSFSASGTQLSLRWEPPADTGGRQDVRYSVRCSQCQGTAQDGGPCQPCGVGVHFSPGARGLTTPAVHVNGLEPYANYTFNVEAQNGVSGLGSSGHASTSVSISMGHAESLSGLSLRLVKKEPRQLELTWAGSRPRSPGANLTYELHVLNQDEERYQMVLEPRVLLTELQPDTTYIVRVRMLTPLGPGPFSPDHEFRTSPPVSRGLTGGE
B1: the Kd in assay [5] worked out at 414 nM.

B2: recombinant EphB3 receptor (commercially available), P54753 34-559 (receptor, UniProt P54753 34-559, looked up)
chain: GCRALEETLMDTKWVTSELAWTSHPESGWEEVSGYDEAMNPIRTYQVCNVRESSQNNWLRTGFIWRRDVQRVYVELKFTVRDCNSIPNIPGSCKETFNLFYYEADSDVASASSPFWMENPYVKVDTIAPDESFSRLDAGRVNTKVRSFGPLSKAGFYLAFQDQGACMSLISVRAFYKKCASTTAGFALFPETLTGAEPTSLVIAPGTCIPNAVEVSVPLKLYCNGDGEWMVPVGACTCATGHEPAAKESQCRPCPPGSYKAKQGEGPCLPCPPNSRTTSPAASICTCHNNFYRADSDSADSACTTVPSPPRGVISNVNETSLILEWSEPRDLGGRDDLLYNVICKKCHGAGGASACSRCDDNVEFVPRQLGLTERRVHISHLLAHTRYTFEVQAVNGVSGKSPLPPRYAAVNITTNQAAPSEVPTLRLHSSSGSSLTLSWAPPERPNGVILDYEMKYFEKSEGIASTVTSQMNSVQLDGLRPDARYVVQVRARTVAGYGQYSRPAEFETTSERGSGAQQLQEQLPL
The molecule B2 gave a Kd in assay [5] of 108 nM.

B3: humanized anti-EFNA4 antibody huE47 (antibody, human IgG1, kappa, V domains shown)
VH: QVQLVQSGAEVKKPGASVKVSCKASGYTFTYFYMNWVRQAPGQGLEWVGQINPNNGGTAYAQKFQGRVTMTRDTSTSTVYMELSSLRSEDTAVYYCARWVGTHYFDYWGQGTTLTVSS
VL: EIVLTQSPATLSLSPGERATLSCRASQSVSSSSYTYIHWYQQKPGQAPRLLINFASNLESGIPARFSGSGSGTDFTLTISSLEPEDFAVYYCQHSWEIPPTFGGGTKLEIKR
notes: human IgG1 / kappa
The molecule B3 came in with a Kd in assay [6] below 0.1 nM. Further, the binding result in the assay with Ephrin-A1-His (R&D) [7] and in the assay with Ephrin-A3-huFc (R&D) [8] was “no binding (tested: 1000 ng/ml)” throughout.

B4: humanized anti-EFNA4 antibody huE15 (antibody, human IgG1, V domains shown)
VH: EVQLVESGGGLVKPGGSLRLSCAASGFTFSTYGMSWVRQAPGKGLEWVATISSGGTYTYYPDSVKGRFKISRDNAKNSLYLQMNSLRAEDTAVYYCTRHDPNDGYYFLFAYWGQGTLVTVSS
VL: EIVLTQSPGTLSLSPGERATLSCKASQSVGNNVAWYQQKPGQAPRLLIYYASNRYTGIPDRFSGSGSGTDFTLTISRLEPEDFAVYYCQQHYSSPLTFGAGTKLEIK
With B4, in assay [6], the Kd is 4.8 nM.

B5: humanized anti-EFNA4 antibody huE22 (antibody, human IgG1, kappa, V domains shown)
VH: QVQLVQSGAEVKKPGASVKVSCKASGYTFTGYYIHWVRQAPGQGLEWMGWIYPGNFNTKYNERFKGRVTMTTDTSTSTAYMELRSLRSDDTAVYYCAREDGSPYYAMDYWGQGTSVTVSS
VL: DIVMTQTPLSLSVTPGQPASISCRSSQSLVHSNGNTFLYWYLQKPGQSPQLLIYRVSNRFSGVPDRFSGSGSGTDFTLKISRVEAEDVGVYYCFQATHVPWTFGGGTKVEIKR
notes: human IgG1 / kappa; also called huE22 mAb; unconjugated huE22
Turning to B5, the “specificity of saporin-mediated cytotoxicity, HEK293T-EFNA4 over HEK293T parental cells” value in assay [9] is around 60 fold. The “Saporin-mediated cytotoxicity IC50 (MTS viability), HEK293T parent cells, huE22 plus saporin-conjugated anti-human Fab” value in assay [10] was found to be 174 ng/mL. In addition, the “Saporin-mediated cytotoxicity IC50 (MTS viability), HEK293T-EFNA4 cells, huE22 plus saporin-conjugated anti-human Fab” value in assay [10] came out at 3 ng/mL. Besides, the Kd in [11] stood at 1.7 nM; in [12], 2.1 nM; in assay [6], 3.8 nM. Further, the koff in assay [11] came out at 0.0033 s⁻¹; in assay [12], 0.0078 s⁻¹. Also, the kon was 1.9e+06 M⁻¹ s⁻¹ in assay [11] and 3.8e+06 M⁻¹ s⁻¹ in assay [12]. The binding result in assay [13] was “no binding (tested: 400 nM antigen)”; in the assay with Ephrin-A1-His (R&D) [14] it was “no binding (tested: 1000 ng/ml)”; with Ephrin-A3-huFc (R&D) [15], “no binding (tested: 1000 ng/ml)”; with Ephrin-A5-huFc (R&D), “no binding (tested: 1000 ng/ml)”. Further, the “EC50 (read off the curve)” value in the assay with Ephrin-A4-huFc (R&D) was around 4 ng/mL.

B6: huE22-AcBut-CM antibody-drug conjugate (antibody, V domains shown)
VH: QVQLVQSGAEVKKPGASVKVSCKASGYTFTGYYIHWVRQAPGQGLEWMGWIYPGNFNTKYNERFKGRVTMTTDTSTSTAYMELRSLRSDDTAVYYCAREDGSPYYAMDYWGQGTSVTVSS
VL: DIVMTQTPLSLSVTPGQPASISCRSSQSLVHSNGNTFLYWYLQKPGQSPQLLIYRVSNRFSGVPDRFSGSGSGTDFTLKISRVEAEDVGVYYCFQATHVPWTFGGGTKVEIKR
modifications: AcBut-N-acetyl-gamma-calicheamicin dimethyl hydrazide (AcBut-CM) conjugated via lysine residues (sites not given); average DAR about 3 to 5
notes: also called huE22-AcBut-CM ADC; huE22-ActBut-CM
For the molecule B6, in [16], the “Anti-EFNA4-AcBut-CM cytotoxicity IC50 (MTS viability, 96 h), HEK293T-EFNA4 cells” value was determined as 1 ng/mL. In addition, in assay [11], the Kd came out at 2.3 nM, the koff stood at 0.0061 s⁻¹ and the kon came to 2.6e+06 M⁻¹ s⁻¹. Besides, in assay [12], the Kd is 2.7 nM, the koff was found to be 0.011 s⁻¹ and the kon is 4.2e+06 M⁻¹ s⁻¹. Moreover, in assay [13], the binding result is given as “no binding (tested: 400 nM antigen)”.
